Columns and labels:
[1] = substrate: COc1cc(C=NN=Cc2cc(OC)c(O)c(OC)c2)cc(OC)c1O; experiment: spectrophotometric oxidation assay, Michaelis-Menten fit; assay type: biochemical, Thermus thermophilus; conditions: pH 6.0, 61.5 °C, free copper contradictory: caption says without, methods and text suggest 1 mM CuSO4 added
Source text: (§1) spectrophotometric oxidation assay, Michaelis-Menten fit on Tth-Lac

[2] = substrate: COc1cccc(OC)c1O; experiment: as above; assay type: biochemical, Thermus thermophilus; conditions: pH 7.0, 61.5 °C, free copper contradictory: caption says with, methods and text suggest without, pH 7.0
Source text: as §1

[3] = substrate: CCn1c(=NN=c2sc3cc(S(=O)(=O)O)ccc3n2CC)sc2cc(S(=O)(=O)O)ccc21; experiment: as above; assay type: biochemical, Thermus thermophilus; conditions: pH 6.0, 61.5 °C, free copper contradictory: caption says without, methods and text suggest 1 mM CuSO4 added
Source text: as §1

purified protein = substrate: COc1ccccc1O; experiment: purified protein; conditions: pH 6.0, 61.5 °C, free copper contradictory: caption says without, methods and text suggest 1 mM CuSO4 added

B1: Tth-Lac (Thermus thermophilus HB27) (protein)
chain: QGPSFPEPKVVRSQGGLLSLKLSATPTPLALAGQRATLLTYGGSFPGPTLRVRPRDTVRLTLENRLPEPTNLHWHGLPISPKVDDPFLEIPPGESWTYEFTVPKELAGTFWYHPHLHGRVAPQLFAGLLGALVVESSLDAIPELREAEEHLLVLKDLALQGGRPAPHTPMDWMNGKEGDLVLVNGALRPTLVAQKATLRLRLLNASNARYYRLALQDHPLYLIAADGGFLEEPLEVSELLLAPGERAEVLVRLRKEGRFLLQALPYDRGAMGMMDMGGMAHAMPQGPSRPETLLYLIAPKNPKPLPLPKALSPFPTLPAPVVTRRLVLTEDMMAARFFINGQVFDHRRVDLKGQAQTVEVWEVENQGDMDHPFHLHVHPFQVLSVGGRPFPYRAWKDVVNLKAGEVARLLVPLREKGRTVFHCHIVEHEDRGMMGVLEVG
notes: signal peptide removed, gene starts at residue 23; pET-22b(+), E. coli BL21 Gold (DE3) with CuSO4; heat step and CM-Sepharose; no tag mentioned; monomer
Q: Which results are given for B1?
A: Km ([1]; pH 6.0): 6.17 ± 0.5 µM; Vmax ([1]; pH 6.0): 13.92 ± 0.31 µmol/mg/min; Km [2]: 880 ± 80 µM; Vmax [2]: 6.00 ± 0.24 µmol/mg/min; Km ([3]; pH 6.0): 1030 ± 160 µM; Vmax ([3]; pH 6.0): 28.48 ± 1.93 µmol/mg/min; Km (purified protein): 21 ± 2 µM; Vmax (purified protein): 5.14 ± 0.11 µmol/mg/min

B2: Tth-Lac (Thermus thermophilus HB27; DEL292-307/G291S) (protein)
chain: QGPSFPEPKVVRSQGGLLSLKLSATPTPLALAGQRATLLTYGGSFPGPTLRVRPRDTVRLTLENRLPEPTNLHWHGLPISPKVDDPFLEIPPGESWTYEFTVPKELAGTFWYHPHLHGRVAPQLFAGLLGALVVESSLDAIPELREAEEHLLVLKDLALQGGRPAPHTPMDWMNGKEGDLVLVNGALRPTLVAQKATLRLRLLNASNARYYRLALQDHPLYLIAADGGFLEEPLEVSELLLAPGERAEVLVRLRKEGRFLLQALPYDRSGPSRPETLLYLIAPKNPKPLPLPKALSPFPTLPAPVVTRRLVLTEDMMAARFFINGQVFDHRRVDLKGQAQTVEVWEVENQGDMDHPFHLHVHPFQVLSVGGRPFPYRAWKDVVNLKAGEVARLLVPLREKGRTVFHCHIVEHEDRGMMGVLEVG
notes: as for B1
Q: Which results are given for B2?
A: Km ([1]; C1Tth-Lac): 7.83 ± 1.35 µM; Vmax ([1]; C1Tth-Lac): 14.60 ± 0.80 µmol/mg/min; Km ([3]; C1Tth-Lac): 280 ± 60 µM; Vmax ([3]; C1Tth-Lac): 12.34 ± 0.91 µmol/mg/min; Km (purified protein; C1Tth-Lac): 45 ± 8 µM; Vmax (purified protein; C1Tth-Lac): 9.47 ± 0.46 µmol/mg/min

B3: Tth-Lac (Thermus thermophilus HB27; A292G/DEL293-307) (protein)
chain: QGPSFPEPKVVRSQGGLLSLKLSATPTPLALAGQRATLLTYGGSFPGPTLRVRPRDTVRLTLENRLPEPTNLHWHGLPISPKVDDPFLEIPPGESWTYEFTVPKELAGTFWYHPHLHGRVAPQLFAGLLGALVVESSLDAIPELREAEEHLLVLKDLALQGGRPAPHTPMDWMNGKEGDLVLVNGALRPTLVAQKATLRLRLLNASNARYYRLALQDHPLYLIAADGGFLEEPLEVSELLLAPGERAEVLVRLRKEGRFLLQALPYDRGGGPSRPETLLYLIAPKNPKPLPLPKALSPFPTLPAPVVTRRLVLTEDMMAARFFINGQVFDHRRVDLKGQAQTVEVWEVENQGDMDHPFHLHVHPFQVLSVGGRPFPYRAWKDVVNLKAGEVARLLVPLREKGRTVFHCHIVEHEDRGMMGVLEVG
notes: as for B1
Q: Which Km ([1]; C2Tth-Lac, pH 6.0) does the source give for B3 here?
A: 7.2 ± 1.13 µM

Q: And the Vmax ([1]; C2Tth-Lac, pH 6.0)?
A: 7.20 ± 0.46 µmol/mg/min

Q: What about the Km ([2]; C2Tth-Lac) of the same protein?
A: 220 ± 30 µM

Q: And the Vmax ([2]; C2Tth-Lac)?
A: 0.87 ± 0.4 µmol/mg/min

Q: And the Km ([3]; C2Tth-Lac, pH 6.0)?
A: 940 ± 190 µM

Q: What about the Vmax ([3]; C2Tth-Lac, pH 6.0) of the same protein?
A: 14.80 ± 1.43 µmol/mg/min

Q: What about the Km (purified protein; C2Tth-Lac) of the same protein?
A: 37 ± 5 µM

Q: And the Vmax (purified protein; C2Tth-Lac)?
A: 3.98 ± 0.21 µmol/mg/min

B4: Tth-Lac (Thermus thermophilus HB27; A304G/DEL295-303) (protein)
chain: QGPSFPEPKVVRSQGGLLSLKLSATPTPLALAGQRATLLTYGGSFPGPTLRVRPRDTVRLTLENRLPEPTNLHWHGLPISPKVDDPFLEIPPGESWTYEFTVPKELAGTFWYHPHLHGRVAPQLFAGLLGALVVESSLDAIPELREAEEHLLVLKDLALQGGRPAPHTPMDWMNGKEGDLVLVNGALRPTLVAQKATLRLRLLNASNARYYRLALQDHPLYLIAADGGFLEEPLEVSELLLAPGERAEVLVRLRKEGRFLLQALPYDRGAMGGMPQGPSRPETLLYLIAPKNPKPLPLPKALSPFPTLPAPVVTRRLVLTEDMMAARFFINGQVFDHRRVDLKGQAQTVEVWEVENQGDMDHPFHLHVHPFQVLSVGGRPFPYRAWKDVVNLKAGEVARLLVPLREKGRTVFHCHIVEHEDRGMMGVLEVG
notes: as for B1
Q: For B4, which Km ([2]; P1Tth-Lac) is on record?
A: 430 ± 60 µM

Q: What about the Vmax ([2]; P1Tth-Lac) of the same protein?
A: 1.45 ± 0.07 µmol/mg/min

Q: What about the Km ([3]; P1Tth-Lac, pH 6.0) of the same protein?
A: 1090 ± 160 µM

Q: And the Vmax ([3]; P1Tth-Lac, pH 6.0)?
A: 21.48 ± 1.81 µmol/mg/min

Q: What about the Km (purified protein; P1Tth-Lac) of the same protein?
A: 49.9 ± 6 µM

Q: And the Vmax (purified protein; P1Tth-Lac)?
A: 9.57 ± 0.47 µmol/mg/min

— PMC11766367, “Structure-Function Relationship of the β-Hairpin of Thermus thermophilus HB27 Laccase” (International Journal of Molecular Sciences, 2025)
